In article PMC7739888, “Induction of the cydAB Operon Encoding the bd Quinol Oxidase Under Respiration-Inhibitory Conditions by the Major cAMP Receptor Protein MSMEG_6189 in Mycobacterium smegmatis”:

Target: T1, Crp1 (MSMEG_6189), C-terminal His6 (UniProt A0R5H1 1-224)
T1 sequence: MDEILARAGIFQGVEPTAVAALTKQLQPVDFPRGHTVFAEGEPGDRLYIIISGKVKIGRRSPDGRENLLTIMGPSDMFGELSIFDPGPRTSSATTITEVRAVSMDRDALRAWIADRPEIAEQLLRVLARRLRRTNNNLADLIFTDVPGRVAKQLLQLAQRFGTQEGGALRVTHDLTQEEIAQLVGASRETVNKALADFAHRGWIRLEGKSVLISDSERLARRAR
Assay: EMSA; 200 uM cAMP; binding virtually abolished; EMSA: 20 mM Tris-HCl pH 8.0, 100 mM NaCl, 2.5 mM MgCl2, 1 mM EDTA, 1 mM DTT, 50 ug/ml BSA, 10% glycerol, 25 C 20 min; footprinting: 20 mM Tris-HCl pH 8.0, 0.2 mM MgCl2, 2.1 mM KCl, 0.04 mM DTT, 11.1% glycerol, 25 C, 0.15-0.6 uM Crp1
Details: protein: recombinant; tags: C-terminal His6; chain copies: 2; label: none (SYBR Green stain); blunt

B1: M3 (CBS1+CBS2 mutant) 99-bp (dsDNA)
DNA 1: GCAGCGGGGTCAGGAAGCTCGGCGCCGCCTTCCCGACCGGCTTTTCATCGGCGCCTCCCCCCAGCTAACCTTTCGCGCTACCTGCGTCGATCTCCTGGC
DNA 2: GCCAGGAGATCGACGCAGGTAGCGCGAAAGGTTAGCTGGGGGGAGGCGCCGATGAAAAGCCGGTCGGGAAGGCGGCGCCGAGCTTCCTGACCCCGCTGC
Does B1 bind?
Result: no binding
